In US20140199318A1:

Target: patient IgG preparation from the immunoadsorption column regenerate of an α1-AR agAAB positive patient with mild vascular dementia
Assay: competition ELISA: free loop1 peptide (0.3 nM to 5 µM) preincubated with patient IgG, binding to immobilised loop1 peptide read

LGYWAFGRVFCN [free (soluble) synthetic peptide corresponding to extracellular loop1 of the human α1-AR] gave an EC50 of 0.03 µM.
